T1: Human TROP2 Protein, His Tag (Acro Biosystems) (human, UniProt P09758 27-274)
T1 construct: Soluble analyte of the Octet assay; also called TACSTD2; not shown: His tag
T1 sequence (looked up): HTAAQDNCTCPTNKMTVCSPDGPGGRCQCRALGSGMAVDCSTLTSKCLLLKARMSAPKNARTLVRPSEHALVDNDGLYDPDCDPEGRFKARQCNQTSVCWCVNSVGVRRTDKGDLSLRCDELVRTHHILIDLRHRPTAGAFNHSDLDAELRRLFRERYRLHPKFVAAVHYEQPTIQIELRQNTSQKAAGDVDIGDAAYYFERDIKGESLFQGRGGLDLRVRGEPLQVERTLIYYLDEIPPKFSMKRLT

T2: Human TROP2 Protein, His Tag (human, UniProt P09758 27-274)
T2 construct: Bought protein; also called TACSTD2; not shown: His tag
T2 sequence (looked up): T1 sequence (looked up)

T3: Human TROP2 Protein, His Tag (Acro Biosystems) (human, UniProt P09758 27-274)
T3 construct: not shown: His tag
T3 sequence (looked up): T1 sequence (looked up)

B1: MYT13176 (antibody, V domains shown)
VH: QVQLQQSGSELKKPGASVKVSCKASGYTFTNHGMNWVKQAPGQGLKWMGWINTYTGEPTYTDDFKGRFAFSLDTSVSTAYLQISSLKADDTAVYFCARGGFGSSYWYFDVWGQGSLVTVSS
VL: DIQLTQSPSSLSASVGDRVSITCKASQDVSIAVAWYQQKPGKAPKLLIYSHSYRYTGVPDRFSGSGSGTDFTLTISSLQPEDFAVYYCQQHYITPLTFGAGTKVEIK
notes: Sacituzumab HC-LC pairing variant; IgG
B2: MYT13174 (antibody, V domains shown)
VH: B1 VH with H32Y, K65H
VL: B1 VL with V33H, H51A
notes: as for B1
B3: MYT13163 (antibody, V domains shown)
VH: B1 VH with H32Y, D62H
VL: B1 VL with S30H, H51A
notes: as for B1
B4: MYT13178 (antibody, V domains shown)
VH: B1 VH with H32Y, Y60H
VL: B1 VL
notes: as for B1
B5: MYT13184 (antibody, V domains shown)
VH: B1 VH
VL: B1 VL with H51A, S52H
notes: as for B1
B6: MYT13185 (antibody, V domains shown)
VH: B1 VH with H32Y, G33H
VL: B1 VL with H51A, S52H
notes: as for B1
B7: MYT13177 (antibody, V domains shown)
VH: B1 VH with H32Y, G33H
VL: B1 VL
notes: as for B1
B8: MYT13170 (antibody, V domains shown)
VH: B1 VH with H32Y, Y60H
VL: B1 VL with V33H, H51A
notes: as for B1
B9: MYT13186 (antibody, V domains shown)
VH: B1 VH with H32Y, Y60H
VL: B1 VL with H51A, S52H
notes: as for B1
B10: MYT13182 (antibody, V domains shown)
VH: B1 VH with H32Y, K65H
VL: B1 VL
notes: as for B1
B11: MYT13161 (antibody, V domains shown)
VH: B1 VH with H32Y, G33H
VL: B1 VL with S30H, H51A
notes: as for B1
B12: MYT13188 (antibody, V domains shown)
VH: B1 VH with H32Y, D63H
VL: B1 VL with H51A, S52H
notes: as for B1
B13: MYT13175 (antibody, V domains shown)
VH: B1 VH with H32Y, G66H
VL: B1 VL with V33H, H51A
notes: as for B1
B14: MYT13200 (antibody, V domains shown)
VH: B1 VH
VL: B1 VL with H51A, Q89H
notes: as for B1
B15: MYT13181 (antibody, V domains shown)
VH: B1 VH with H32Y, F64H
VL: B1 VL
notes: as for B1
B16: MYT13172 (antibody, V domains shown)
VH: B1 VH with H32Y, D63H
VL: B1 VL with V33H, H51A
notes: as for B1
B17: MYT13173 (antibody, V domains shown)
VH: B1 VH with H32Y, F64H
VL: B1 VL with V33H, H51A
notes: as for B1
B18: MYT13166 (antibody, V domains shown)
VH: B1 VH with H32Y, K65H
VL: B1 VL with S30H, H51A
notes: as for B1
B19: MYT13183 (antibody, V domains shown)
VH: B1 VH with H32Y, G66H
VL: B1 VL
notes: as for B1
B20: MYT13165 (antibody, V domains shown)
VH: B1 VH with H32Y, F64H
VL: B1 VL with S30H, H51A
notes: as for B1
B21: MYT13180 (antibody, V domains shown)
VH: B1 VH with H32Y, D63H
VL: B1 VL
notes: as for B1
B22: MYT13168 (antibody, V domains shown)
VH: B1 VH
VL: B1 VL with V33H, H51A
notes: as for B1
B23: MYT13167 (antibody, V domains shown)
VH: B1 VH with H32Y, G66H
VL: B1 VL with S30H, H51A
notes: as for B1
B24: MYT13169 (antibody, V domains shown)
VH: B1 VH with H32Y, G33H
VL: B1 VL with V33H, H51A
notes: as for B1
B25: MYT13171 (antibody, V domains shown)
VH: B1 VH with H32Y, D62H
VL: B1 VL with V33H, H51A
notes: as for B1
B26: MYT13179 (antibody, V domains shown)
VH: B1 VH with H32Y, D62H
VL: B1 VL
notes: as for B1
B27: MYT13164 (antibody, V domains shown)
VH: B1 VH with H32Y, D63H
VL: B1 VL with S30H, H51A
notes: as for B1
B28: MYT13189 (antibody, V domains shown)
VH: B1 VH with H32Y, F64H
VL: B1 VL with H51A, S52H
notes: as for B1
B29: MYT13162 (antibody, V domains shown)
VH: B1 VH with H32Y, Y60H
VL: B1 VL with S30H, H51A
notes: as for B1
B30: MYT11660 (antibody, V domains shown)
VH: QVQLVQSGAEVKKPGASVKVSCKASGYTFTTAGMQWVRQAPGQGLEWMGWINTHSGVPKYAEDHKGRVTISADTSTSTAYLQLSSLKSEDTAVYYCARSGFGSSYWYFDVWGQGTLVTVSS
VL: B1 VL with L4M, S20T, I31T, H51A, D60S, A100Q, V104L
notes: IgG from supernatant; His at HCV position 64; also called datopotamab variant H2 15
B31: MYT11661 (antibody, V domains shown)
VH: B30 VH with H64F, K65H
VL: B1 VL with L4M, S20T, I31T, H51A, D60S, A100Q, V104L
notes: IgG from supernatant; His at HCV position 65; also called datopotamab variant H2 16
B32: MYT11673 (antibody, V domains shown)
VH: B30 VH with H64F, Y107H
VL: B1 VL with L4M, S20T, I31T, H51A, D60S, A100Q, V104L
notes: IgG from supernatant; also called datopotamab variant H3 11
B33: MYT11667 (antibody, V domains shown)
VH: B30 VH with H64F, F101H
VL: B1 VL with L4M, S20T, I31T, H51A, D60S, A100Q, V104L
notes: IgG from supernatant; His at HCV position 101; also called datopotamab variant H3 05
B34: MYT11674 (antibody, V domains shown)
VH: B30 VH with H64F, F108H
VL: B1 VL with L4M, S20T, I31T, H51A, D60S, A100Q, V104L
notes: IgG from supernatant; also called datopotamab variant H3 12
B35: MYT11664 (antibody, V domains shown)
VH: B30 VH with H64F, R98H
VL: B1 VL with L4M, S20T, I31T, H51A, D60S, A100Q, V104L
notes: IgG from supernatant; His at HCV position 98; also called datopotamab variant H3 02
B36: MYT11662 (antibody, V domains shown)
VH: B30 VH with H64F, G66H
VL: B1 VL with L4M, S20T, I31T, H51A, D60S, A100Q, V104L
notes: IgG from supernatant; His at HCV position 66; also called datopotamab variant H2 17
B37: MYT11675 (antibody, V domains shown)
VH: B30 VH with H64F, D109H
VL: B1 VL with L4M, S20T, I31T, H51A, D60S, A100Q, V104L
B38: MYT12300 (antibody, V domains shown)
VH: B1 VH with G66H
VL: B1 VL with H51A
notes: sacituzumab VH 32, 66 -> H
B39: MYT12299 (antibody, V domains shown)
VH: B1 VH with K65H
VL: B1 VL with H51A
notes: sacituzumab VH 32, 65 -> H
B40: MYT12301 (antibody, V domains shown)
VH: B1 VH with H32Y, G33H, Y60H
VL: B1 VL with H51A
notes: sacituzumab VH 33, 60 -> H

Changes are numbered by the printed parent chain.

The first test has as its target T1, Human TROP2 Protein, His Tag (Acro …). Briefly: BLI (Octet). A general note: In BLI a coated tip is dipped into the sample, and binding shifts an interference pattern.
As to B1, the binding result is given as “binds”. Turning to B2, the binding result is listed as “binds”. On to B3, for which the binding result is listed as “binds”. The same measure, in the same setting: for B4 the value was “binds”; for B5, “binds”. On the same count and under the same terms, the same measure for B6: “binds”; for B7: “binds”; for B8: “binds”.

Take B9: the binding result was “binds”.

As for B10, the binding result is listed as “binds”. Same read-out and setting: the same measure for B11: “binds”; for B12: “binds”. B13: the binding result is given as “binds”. Same read-out and setting: the same measure for B14: “binds”; for B15: “binds”. As for B16, the binding result is “binds”. Take B17: the binding result is recorded as “binds”.

As for B18, the binding result was “binds”. In the case of B19, the binding result is on record as “binds”. For B20, the binding result was “binds”. Consider B21, for which the binding result is given as “binds”. Take B22: the binding result was “binds”. Take B23: the binding result is recorded as “binds”. For B24, the binding result was “binds”. Turning to B25, the binding result is reported as “binds”. On the same count and under the same terms, for B26 the value was “binds”; for B27, “binds”; for B28, “binds”.

For the molecule B29, the binding result is given as “binds”.

Another test has as its target T2, Human TROP2 Protein, His Tag. Put plainly: BLI (Octet).
Consider B30, for which the binding result is “binds”.

With B31, the binding result is given as “binds”. Turning to B32, the binding result is recorded as “binds”. B33: the binding result is “binds”. Take B34: the binding result is “binds”.

B35: the binding result is “binds”. Still for that read-out and setting: the same measure for B36: “binds”; for B37: “binds”.

A further test concerns the target T3, Human TROP2 Protein, His Tag (Acro …). Put plainly: BLI (Octet) [1/2].
Consider B38, for which the binding result is on record as “binds”.

As for B39, the binding result is “binds”. B40: the binding result is “binds”.
